The text below walks through data of patent US20240117326A1 (COMMONWEALTH SCIENTIFIC AND INDUSTRIAL RESEARCH ORGANISATION, published 2024).

The labels stand for the following.
B3: MPP-processed MTP-FAγ51::NifU::TwinStrep fusion polypeptide encoded by SN166 (scar9::GG::NifU::TS) (other)
chain: not shown
notes: N-terminal analysis and the tryptic peptide ISTQVVR confirmed cleavage at the intended site; Purified from N. benthamiana leaves; also called scar9-NifU::TS; scar9-NifU-TwinStrep

Assay [1] concerns the target T1, MPP-processed MTP-FAγ51::NifU::HA fusion polypeptide encoded by SN32 (scar9::GG::NifU::HA) (Klebsiella oxytoca, UniProt P05343 1-274).
T1 construct: also called scar9::NifU::HA; processed NifU
T1 sequence: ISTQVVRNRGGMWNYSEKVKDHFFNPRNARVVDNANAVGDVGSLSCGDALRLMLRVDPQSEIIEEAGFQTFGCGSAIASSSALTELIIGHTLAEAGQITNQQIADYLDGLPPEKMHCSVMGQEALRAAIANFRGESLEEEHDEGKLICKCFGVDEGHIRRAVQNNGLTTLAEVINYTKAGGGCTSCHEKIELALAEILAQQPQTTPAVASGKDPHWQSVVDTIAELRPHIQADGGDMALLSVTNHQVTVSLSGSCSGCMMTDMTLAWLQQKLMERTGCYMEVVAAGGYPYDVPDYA
The assay can be described thus: co-purification on StrepTactinXT column through NifS::TS from N. benthamiana leaf extract (SN231 + SN32); anti-HA Western blot. A general note: Immunoblotting shows a protein as a band on a membrane.

In assay [2] the target is B3. The assay can be described thus: co-purification on StreptactinXT column through NifU::TS from N. benthamiana leaf extract (SN31 + SN166), anaerobic, anti-HA Western blot of the eluate.
In assay [3] the target is T2, MPP-processed MTP-FAγ51::NifS::HA fusion polypeptide encoded by SN31 (scar9::GG::NifS::HA) (Klebsiella oxytoca, UniProt P05344 1-397).
T2 construct: also called scar9-NifS::HA; processed NifS
T2 sequence: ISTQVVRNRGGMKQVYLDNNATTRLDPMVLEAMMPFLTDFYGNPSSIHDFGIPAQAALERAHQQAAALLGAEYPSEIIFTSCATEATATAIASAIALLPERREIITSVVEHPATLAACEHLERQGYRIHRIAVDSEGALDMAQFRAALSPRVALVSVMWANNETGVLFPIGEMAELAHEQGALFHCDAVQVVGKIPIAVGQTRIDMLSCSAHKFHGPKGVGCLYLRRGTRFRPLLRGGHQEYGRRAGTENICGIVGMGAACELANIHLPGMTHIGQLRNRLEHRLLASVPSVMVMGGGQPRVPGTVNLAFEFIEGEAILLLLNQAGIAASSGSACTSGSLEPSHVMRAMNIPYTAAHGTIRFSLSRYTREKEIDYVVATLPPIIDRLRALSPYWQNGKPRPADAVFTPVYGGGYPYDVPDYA
The assay can be described thus: co-purification on StreptactinXT column through NifU::TS from N. benthamiana leaf extract (SN31 + SN166), anaerobic, non-denaturing; anti-HA Western blot.

The target in assay [4] is T3, MPP-processed MTP-FAγ51::HA::AnfD fusion polypeptide (gene of SN161; in SL26, SL34, SL43, SL93) (Azotobacter vinelandii, UniProt P16266 1-518).
T3 construct: also called HA::AnfD processed; AnfD polypeptide
The experiment in a line: co-purification on Strep-tactin column through TwinStrep::AnfK (SL34), aerobic; anti-HA Western blot.

The target of assay [5] is T4, MPP-processed MTP-FAγ51::AnfD::Twin Strep fusion polypeptide (gene of SN177, expressed from multi-gene vector … (Azotobacter vinelandii, UniProt P16266 1-518)).
T4 construct: The eluted AnfD migrated at the size of the processed form; also called AnfD polypeptide (SL30)
The experiment in a line: discussion of the AnfD::TwinStrep purification, aerobic.

T4 sequence (P16266 other isoform, or with tags, fused parts or gaps): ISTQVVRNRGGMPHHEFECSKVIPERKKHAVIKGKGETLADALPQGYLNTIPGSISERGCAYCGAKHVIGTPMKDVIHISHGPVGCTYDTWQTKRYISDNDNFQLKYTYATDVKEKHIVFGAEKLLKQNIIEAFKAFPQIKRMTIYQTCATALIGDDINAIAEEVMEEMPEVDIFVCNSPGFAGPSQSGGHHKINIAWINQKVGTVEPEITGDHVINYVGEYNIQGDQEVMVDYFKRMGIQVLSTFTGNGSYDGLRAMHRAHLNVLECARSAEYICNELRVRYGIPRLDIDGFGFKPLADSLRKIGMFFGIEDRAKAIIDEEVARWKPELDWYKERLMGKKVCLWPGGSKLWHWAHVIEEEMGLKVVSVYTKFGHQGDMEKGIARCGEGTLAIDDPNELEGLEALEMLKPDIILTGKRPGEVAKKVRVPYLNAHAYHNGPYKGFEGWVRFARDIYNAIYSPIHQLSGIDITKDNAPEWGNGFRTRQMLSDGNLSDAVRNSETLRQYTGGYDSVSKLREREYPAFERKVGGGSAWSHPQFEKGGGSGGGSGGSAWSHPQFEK

B1: MPP-processed MTP-FAγ51::NifS::TwinStrep fusion polypeptide encoded by SN231 (scar9::NifS::TS) (enzyme)
chain: not shown
notes: the text names scar9::NifS::TS in the eluate; also called MTP-FAγ51::NifS::TS
With B1, the binding result in assay [1] was “binds”.

B2: unprocessed MTP-FAγ51::NifS::HA fusion polypeptide encoded by SN31 (enzyme)
chain: MMAMAVFRREGRRLLPSIAARPIAAIRSPLSSDQEEGLLGVRSISTQVVRNRGGMKQVYLDNNATTRLDPMVLEAMMPFLTDFYGNPSSIHDFGIPAQAALERAHQQAAALLGAEYPSEIIFTSCATEATATAIASAIALLPERREIITSVVEHPATLAACEHLERQGYRIHRIAVDSEGALDMAQFRAALSPRVALVSVMWANNETGVLFPIGEMAELAHEQGALFHCDAVQVVGKIPIAVGQTRIDMLSCSAHKFHGPKGVGCLYLRRGTRFRPLLRGGHQEYGRRAGTENICGIVGMGAACELANIHLPGMTHIGQLRNRLEHRLLASVPSVMVMGGGQPRVPGTVNLAFEFIEGEAILLLLNQAGIAASSGSACTSGSLEPSHVMRAMNIPYTAAHGTIRFSLSRYTREKEIDYVVATLPPIIDRLRALSPYWQNGKPRPADAVFTPVYGGGYPYDVPDYA
notes: Full-length translation product, not cleaved by MPP; also called unprocessed form of the NifS fusion polypeptide
Take B2: the binding result in assay [2] is given as “no binding”.

As to B3, the binding result in assay [3] is recorded as “binds”.

B4: MPP-processed MTP-CoxIV::Twin Strep::AnfK fusion polypeptide (gene of SN195; in SL34, SL37, SL43) (enzyme)
chain: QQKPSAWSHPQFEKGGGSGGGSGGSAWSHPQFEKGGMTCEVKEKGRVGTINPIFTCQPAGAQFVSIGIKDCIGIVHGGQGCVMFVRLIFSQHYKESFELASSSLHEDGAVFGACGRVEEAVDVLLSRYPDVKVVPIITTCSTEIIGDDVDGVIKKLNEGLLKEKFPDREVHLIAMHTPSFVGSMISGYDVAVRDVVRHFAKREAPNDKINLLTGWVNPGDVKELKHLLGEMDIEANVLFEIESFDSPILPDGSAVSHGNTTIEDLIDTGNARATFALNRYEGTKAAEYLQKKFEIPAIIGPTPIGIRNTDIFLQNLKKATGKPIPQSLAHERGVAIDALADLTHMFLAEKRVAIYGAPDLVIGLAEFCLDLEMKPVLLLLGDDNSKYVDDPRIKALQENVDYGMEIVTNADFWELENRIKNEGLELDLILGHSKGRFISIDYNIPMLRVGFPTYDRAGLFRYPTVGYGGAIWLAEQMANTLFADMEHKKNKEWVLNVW
notes: also called MTP-CoxIV::TwinStrep::AvAnfK
As to B4, the binding result in assay [4] is “binds”.

B5: MPP-processed MTP-FAγ51::HA::AnfK fusion polypeptide (gene of SN129; in SL26, SL30, SL93) (enzyme)
chain: ISTQVVRNRGGYPYDVPDYAGGMTCEVKEKGRVGTINPIFTCQPAGAQFVSIGIKDCIGIVHGGQGCVMFVRLIFSQHYKESFELASSSLHEDGAVFGACGRVEEAVDVLLSRYPDVKVVPIITTCSTEIIGDDVDGVIKKLNEGLLKEKFPDREVHLIAMHTPSFVGSMISGYDVAVRDVVRHFAKREAPNDKINLLTGWVNPGDVKELKHLLGEMDIEANVLFEIESFDSPILPDGSAVSHGNTTIEDLIDTGNARATFALNRYEGTKAAEYLQKKFEIPAIIGPTPIGIRNTDIFLQNLKKATGKPIPQSLAHERGVAIDALADLTHMFLAEKRVAIYGAPDLVIGLAEFCLDLEMKPVLLLLGDDNSKYVDDPRIKALQENVDYGMEIVTNADFWELENRIKNEGLELDLILGHSKGRFISIDYNIPMLRVGFPTYDRAGLFRYPTVGYGGAIWLAEQMANTLFADMEHKKNKEWVLNVW
notes: also called HA::AnfK processed
On to B5, for which, in assay [5], the binding result was “binds”.
